Measured values published in patent US20230002480A1.

How the values were obtained:
Experiment in all cases: cell-based or functional assay
[1] = target: HIV-1 Env of pseudovirus 0260.v5.c36 (HIV-1)
[2] = target: HIV-1 Env of pseudovirus 3301.v1.c24 (HIV-1)
[3] = target: HIV-1 Env of pseudovirus 6041.v3.c23 (HIV-1)
[4] = target: HIV-1 Env of pseudovirus 6480.v4.c25 (HIV-1)
[5] = target: HIV-1 Env of pseudovirus 6540.v4.c1 (HIV-1)
[6] = target: HIV-1 Env of pseudovirus 89-F1_2_25 (HIV-1)
[7] = target: HIV-1 Env of pseudovirus BJOX015000.11.5 (HIV-1)
[8] = target: HIV-1 Env of pseudovirus BJOX025000.01.1 (HIV-1)
[9] = target: HIV-1 Env of pseudovirus C4118.c09 (HIV-1)
[10] = target: HIV-1 Env of pseudovirus CNE8 (HIV-1)
[11] = target: HIV-1 Env of pseudovirus P0402_c2_11 (HIV-1)
[12] = target: HIV-1 Env of pseudovirus T255-34 (HIV-1)

| Substance | IC50 [1] [µg/mL] | IC80 [1] [µg/mL] | MPI [1] | IC50 [2] [µg/mL] | IC80 [2] [µg/mL] | MPI [2] | IC50 [3] [µg/mL] | IC80 [3] [µg/mL] | MPI [3] | IC50 [4] [µg/mL] | IC80 [4] [µg/mL] | MPI [4] | IC50 [5] [µg/mL] | IC80 [5] [µg/mL] | MPI [5] | IC50 [6] [µg/mL] | IC80 [6] [µg/mL] | MPI [6] | IC50 [7] [µg/mL] | IC80 [7] [µg/mL] | other results |
| --- | --- | --- | --- | --- | --- | --- | --- | --- | --- | --- | --- | --- | --- | --- | --- | --- | --- | --- | --- | --- | --- |
| N49P7.2 (antibody) | 0.644 | 1.8 | 100 | 0.05 | 0.137 | 100 | 0.309 | 5.11 | 94 | 0.098 | 0.371 | 100 | > 50 | > 50 | 33 | > 50 | > 50 | 18 | 0.289 | 1.26 | MPI [7]: 100; IC50 [8]: 0.102 µg/mL; IC80 [8]: 0.831 µg/mL; MPI [8]: 100; IC50 [9]: 0.079 µg/mL; IC80 [9]: 0.292 µg/mL; MPI [9]: 100; IC50 [10]: 0.073 µg/mL; IC80 [10]: 0.24 µg/mL; MPI [10]: 100; IC50 [11]: 0.106 µg/mL; IC80 [11]: 0.4 µg/mL; MPI [11]: 100; IC50 [12]: 0.167 µg/mL; IC80 [12]: 0.527 µg/mL; MPI [12]: 100 |
| N49P18.1 (antibody) | 16.2 | 47.8 | 81 | 3.25 | 11.3 | 99 | 3.05 | 12.2 | 96 | 2.97 | 17.3 | 99 | > 50 | > 50 | 35 | > 50 | > 50 | 9 | 27.3 | > 50 | MPI [7]: 67; IC50 [8]: 7.67 µg/mL; IC80 [8]: 39.1 µg/mL; MPI [8]: 85; IC50 [9]: 8.63 µg/mL; IC80 [9]: 23.2 µg/mL; MPI [9]: 93; IC50 [10]: 16.2 µg/mL; IC80 [10]: 44.7 µg/mL; MPI [10]: 83; IC50 [11]: 5.47 µg/mL; IC80 [11]: 20.8 µg/mL; MPI [11]: 98; IC50 [12]: 10.4 µg/mL; IC80 [12]: 33.8 µg/mL; MPI [12]: 90 |
| N49P11 (antibody) | 0.438 | 1.47 | 100 | 1.98 | 15.7 | 100 | 4.42 | 17.6 | 100 | 0.227 | 1.03 | 100 | 3.05 | 16.3 | 100 | 4.24 | 16.6 | 100 | 0.288 | 1.28 | MPI [7]: 100; IC50 [8]: 0.361 µg/mL; IC80 [8]: 2.58 µg/mL; MPI [8]: 100; IC50 [9]: 0.094 µg/mL; IC80 [9]: 0.346 µg/mL; MPI [9]: 100; IC50 [10]: 0.165 µg/mL; IC80 [10]: 1.24 µg/mL; MPI [10]: 100; IC50 [11]: 0.091 µg/mL; IC80 [11]: 0.698 µg/mL; MPI [11]: 100; IC50 [12]: 0.418 µg/mL; IC80 [12]: 3.83 µg/mL; MPI [12]: 100 |
